Source: paper PMC4691241, “Activation of ULK Kinase and Autophagy by GABARAP Trafficking from the Centrosome Is Regulated by WAC and GM130” (Molecular Cell, 2015)

Experiments:
[1] = molecular target: T1, Strep-Tag II-GM130, purified (human, UniProt Q08379 1-1002); assay: pull-down; GST-WAC FL or ΔCC incubated with purified Strep-Tag II-GM130; GST-WAC monitored by Ponceau S; conditions: both partners purified
T1 construct: human GM130 isoform 1; also called Strep II-GM130; purified GM130; source: purified
T1 sequence (looked up): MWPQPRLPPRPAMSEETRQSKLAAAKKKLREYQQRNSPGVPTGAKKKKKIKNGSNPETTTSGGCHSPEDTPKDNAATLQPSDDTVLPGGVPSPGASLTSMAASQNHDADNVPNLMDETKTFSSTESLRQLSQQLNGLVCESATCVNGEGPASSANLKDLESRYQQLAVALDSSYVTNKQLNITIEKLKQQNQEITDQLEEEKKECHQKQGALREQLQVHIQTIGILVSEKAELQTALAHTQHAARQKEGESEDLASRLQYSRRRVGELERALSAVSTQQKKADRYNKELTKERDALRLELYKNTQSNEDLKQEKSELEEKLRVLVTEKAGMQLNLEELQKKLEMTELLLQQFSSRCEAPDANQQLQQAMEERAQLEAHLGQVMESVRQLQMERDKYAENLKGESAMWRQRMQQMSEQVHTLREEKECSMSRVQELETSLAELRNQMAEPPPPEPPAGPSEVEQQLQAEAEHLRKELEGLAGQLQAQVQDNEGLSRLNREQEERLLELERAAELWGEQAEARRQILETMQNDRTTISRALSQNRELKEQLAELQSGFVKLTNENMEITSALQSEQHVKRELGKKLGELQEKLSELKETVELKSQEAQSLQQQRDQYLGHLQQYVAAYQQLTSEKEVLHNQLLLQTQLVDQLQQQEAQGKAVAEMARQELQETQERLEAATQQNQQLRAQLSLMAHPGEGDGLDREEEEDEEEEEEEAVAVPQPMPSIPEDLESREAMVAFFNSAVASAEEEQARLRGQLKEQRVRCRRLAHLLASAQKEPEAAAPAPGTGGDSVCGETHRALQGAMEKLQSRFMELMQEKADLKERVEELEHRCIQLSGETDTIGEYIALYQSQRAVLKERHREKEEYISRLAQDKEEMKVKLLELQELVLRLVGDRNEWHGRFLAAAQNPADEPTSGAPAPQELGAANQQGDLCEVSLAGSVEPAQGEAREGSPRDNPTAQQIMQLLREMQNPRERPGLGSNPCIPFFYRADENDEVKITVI

[2] = molecular target: T1, Strep-Tag II-GM130, purified; assay: pull-down; purified Strep II-GM130 incubated with recombinant WAC 320–647 before binding to recombinant GST or GST-GABARAP beads, immunoblot; conditions: both partners purified

B1: GST-WAC FL (natural protein, human, UniProt Q9BTA9 1-647, looked up)
chain: MVMYARKQQRLSDGCHDRRGDSQPYQALKYSSKSHPSSGDHRHEKMRDAGDPSPPNKMLRRSDSPENKYSDSTGHSKAKNVHTHRVRERDGGTSYSPQENSHNHSALHSSNSHSSNPSNNPSKTSDAPYDSADDWSEHISSSGKKYYYNCRTEVSQWEKPKEWLEREQRQKEANKMAVNSFPKDRDYRREVMQATATSGFASGMEDKHSSDASSLLPQNILSQTSRHNDRDYRLPRAETHSSSTPVQHPIKPVVHPTATPSTVPSSPFTLQSDHQPKKSFDANGASTLSKLPTPTSSVPAQKTERKESTSGDKPVSHSCTTPSTSSASGLNPTSAPPTSASAVPVSPVPQSPIPPLLQDPNLLRQLLPALQATLQLNNSNVDISKINEVLTAAVTQASLQSIIHKFLTAGPSAFNITSLISQAAQLSTQAQPSNQSPMSLTSDASSPRSYVSPRISTPQTNTVPIKPLISTPPVSSQPKVSTPVVKQGPVSQSATQQPVTADKQQGHEPVSPRSLQRSSSQRSPSPGPNHTSNSSNASNATVVPQNSSARSTCSLTPALAAHFSENLIKHVQGWPADHAEKQASRLREEAHNMGTIHMSEICTELKNLRSLVRVCEIQATLREQRILFLRQQIKELEKLKNQNSFMV
notes: human WAC isoform 1, full length; also called recombinant GST-WAC; source: recombinant
binding result [1]: binds

B2: recombinant WAC 320–647 (domain or fragment, human, UniProt Q9BTA9 320-647, looked up)
chain: TTPSTSSASGLNPTSAPPTSASAVPVSPVPQSPIPPLLQDPNLLRQLLPALQATLQLNNSNVDISKINEVLTAAVTQASLQSIIHKFLTAGPSAFNITSLISQAAQLSTQAQPSNQSPMSLTSDASSPRSYVSPRISTPQTNTVPIKPLISTPPVSSQPKVSTPVVKQGPVSQSATQQPVTADKQQGHEPVSPRSLQRSSSQRSPSPGPNHTSNSSNASNATVVPQNSSARSTCSLTPALAAHFSENLIKHVQGWPADHAEKQASRLREEAHNMGTIHMSEICTELKNLRSLVRVCEIQATLREQRILFLRQQIKELEKLKNQNSFMV
notes: human WAC isoform 1, residues 320-647 (the C-terminal half, CT); source: recombinant
binding result [2]: binds
